Reference: patent publication US20040146984

Tests used:
[1] = tested on: T1, LPXTG-containing peptide KRQLPSTGETANPFY from the streptococcal M6 protein
T1 sequence: KRQLPSTGETANPFY

[2] = target: native bovine serum albumin (UniProt P02769)
[3] = tested on: peptide in which the LPSTGE was randomly placed (TEPGSL)
[4] = tested on: peptide in which the LPSTGE was reversed (EGTSPL)

Sequence of native bovine serum albumin (P02769 25-607): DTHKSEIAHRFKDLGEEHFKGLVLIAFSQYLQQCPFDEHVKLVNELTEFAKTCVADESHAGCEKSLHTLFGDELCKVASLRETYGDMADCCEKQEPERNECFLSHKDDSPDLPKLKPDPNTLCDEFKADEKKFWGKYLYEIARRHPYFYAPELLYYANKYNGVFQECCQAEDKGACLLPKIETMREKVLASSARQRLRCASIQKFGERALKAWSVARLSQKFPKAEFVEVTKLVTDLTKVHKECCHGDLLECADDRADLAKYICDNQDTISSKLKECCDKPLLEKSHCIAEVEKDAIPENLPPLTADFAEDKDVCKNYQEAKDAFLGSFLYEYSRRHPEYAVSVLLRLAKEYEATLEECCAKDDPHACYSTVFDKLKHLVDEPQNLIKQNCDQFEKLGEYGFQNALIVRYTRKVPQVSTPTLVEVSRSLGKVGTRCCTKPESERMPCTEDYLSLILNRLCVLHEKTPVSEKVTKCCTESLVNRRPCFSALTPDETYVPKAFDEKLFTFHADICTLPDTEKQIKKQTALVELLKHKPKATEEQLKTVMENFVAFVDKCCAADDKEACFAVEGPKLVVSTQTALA

LPXTGase
% of control (Calcium chloride 20 mM) [1]: 23 % of control | % of control (Control, no salt) [1]: 100 % of control | % of control (EDTA 20 mM) [1]: 5.2 % of control | % of control (Hydroxylamine-HCl 100 mM) [1]: 27 % of control | % of control (Magnesium chloride 20 mM) [1]: 20 % of control | % of control (Potassium chloride 100 mM) [1]: 20 % of control | % of control (Putrescene chloride 20 mM) [1]: 21 % of control | % of control (Sodium chloride 100 mM) [1]: 16 % of control | % of control (Sodium phosphate 20 mM) [1]: 49 % of control | % of control (Sodium sulfate 20 mM) [1]: 57 % of control | Km (Lineweaver-Burk plot of cleavage of 125I-labeled peptide, 20 to 240 µM, 2.4 µM enzyme, 30 min) [1]: Km of 0.26 mM | Vmax (Lineweaver-Burk plot of cleavage of 125I-labeled peptide) [1]: Vmax of 67 µM in 30 min when 2.4 µM of enzyme was used in the assay | cleavage of bead-bound peptide, N-terminal sequencing of the fragment [1]: the enzyme cleaved after glutamic acid within the LPSTGE (SEQ ID NO:3) sequence releasing the TANPFY (SEQ ID NO:6) peptide fragment | cleavage of free peptide, sequencing of the fragments [1]: the enzyme cleaved the free KRQLPSTGETANPFY (SEQ ID NO:2) peptide at two sites, after the serine and the glutamic acid of LPSTGE | peptide cleaved, cpm (Calcium chloride 20 mM) [1]: 9710 cpm | peptide cleaved, cpm (Control, no salt) [1]: 41500 cpm | peptide cleaved, cpm (EDTA 20 mM) [1]: 2150 cpm | peptide cleaved, cpm (Hydroxylamine-HCl 100 mM) [1]: 11200 cpm | peptide cleaved, cpm (Magnesium chloride 20 mM) [1]: 8620 cpm | peptide cleaved, cpm (Potassium chloride 100 mM) [1]: 8610 cpm | peptide cleaved, cpm (Putrescene chloride 20 mM) [1]: 8710 cpm | peptide cleaved, cpm (Sodium chloride 100 mM) [1]: 6720 cpm | peptide cleaved, cpm (Sodium phosphate 20 mM) [1]: 20600 cpm | peptide cleaved, cpm (Sodium sulfate 20 mM) [1]: 23500 cpm | cleavage (SDS-PAGE for degradation) [2]: No cleavage was observed when native bovine serum albumin was reacted in a similar way | cleavage of bead-bound or free peptide [3]: no cleavage was observed (not shown) | cleavage of bead-bound or free peptide [4]: no cleavage was observed (not shown)
